According to patent publication US9937235B2, “Lipidated peptides as anti-obesity agents” (USTAV ORGANICKE CHEMIE A BIOCHEMIE AKADEMIE VED CR, V.V.I, priority 2012, dated 2018):
Where no end group is shown, it is not given here. [ ]: non-standard residue; d: D form. The star is where a group is joined. Lauroyl = CCCCCCCCCCCC(=O)*; Nle = CCCC[C@H](N)C(=O)O; Dap = NC[C@H](N)C(=O)O

Tests used:
[1] = molecular target: T1, rat PrRP receptor in RC-4B/C cells (rat, UniProt Q64121 1-370); test: competition with 125I-rat PrRP31 on RC-4B/C cells; Ki by Cheng-Prusoff
T1 construct: whole, on cells; also called the rat receptor; GPR10
T1 sequence (looked up): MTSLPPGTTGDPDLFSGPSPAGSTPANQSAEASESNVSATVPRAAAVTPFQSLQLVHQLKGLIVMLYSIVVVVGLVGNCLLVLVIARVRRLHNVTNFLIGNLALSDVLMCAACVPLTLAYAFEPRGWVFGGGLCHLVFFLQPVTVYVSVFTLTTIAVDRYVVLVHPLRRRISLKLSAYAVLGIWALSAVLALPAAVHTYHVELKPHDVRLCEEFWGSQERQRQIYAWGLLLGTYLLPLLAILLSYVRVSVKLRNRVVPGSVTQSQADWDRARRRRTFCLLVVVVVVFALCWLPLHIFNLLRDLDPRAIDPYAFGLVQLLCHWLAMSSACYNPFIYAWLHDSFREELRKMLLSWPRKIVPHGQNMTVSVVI
Protocol: (§1) The rat pituitary cell line RC-4B/C (ATCC, Manassas, USA) was grown on 24-well plates which had their bottom coated with polyethyleneimine. The cells were grown to the optimal density of 300-450 thousand per well.
(§2) Plates were incubated for 60 minutes at room temperature. After incubation, the cells were solubilized in 0.1 mol/l solution of NaOH and the radioactivity bound to the cells was counted using a γ-counter. The experiments were performed in duplicate and repeated at least three times.
For evaluation of competitive binding experiments, the program Graph Pad Prism Software (San Diego, Calif., USA) was used. A method of nonlinear regression assuming one-site binding was used.

[2] = molecular target: T1, rat PrRP receptor in RC-4B/C cells; test: competition with 125I-rat PrRP31 on RC-4B/C cells
Protocol: as §1, §2

B1: analog no. 3 (peptide)
peptide: [Dap](Lauroyl)RAHQHS[Nle]ETRTPDINPAWYTGRGIRPVGRF-NH2
modifications: N-terminus assumed
SMILES: CCCCCCCCCCCC(=O)NC[C@H](N)C(=O)N[C@@H](CCCNC(=N)N)C(=O)N[C@@H](C)C(=O)N[C@@H](Cc1c[nH]cn1)C(=O)N[C@@H](CCC(N)=O)C(=O)N[C@@H](Cc1c[nH]cn1)C(=O)N[C@@H](CO)C(=O)N[C@@H](CCCC)C(=O)N[C@@H](CCC(=O)O)C(=O)N[C@H](C(=O)N[C@@H](CCCNC(=N)N)C(=O)N[C@H](C(=O)N1CCC[C@H]1C(=O)N[C@@H](CC(=O)O)C(=O)N[C@H](C(=O)N[C@@H](CC(N)=O)C(=O)N1CCC[C@H]1C(=O)N[C@@H](C)C(=O)N[C@@H](Cc1c[nH]c2ccccc12)C(=O)N[C@@H](Cc1ccc(O)cc1)C(=O)N[C@H](C(=O)NCC(=O)N[C@@H](CCCNC(=N)N)C(=O)NCC(=O)N[C@H](C(=O)N[C@@H](CCCNC(=N)N)C(=O)N1CCC[C@H]1C(=O)N[C@H](C(=O)NCC(=O)N[C@@H](CCCNC(=N)N)C(=O)N[C@@H](Cc1ccccc1)C(N)=O)C(C)C)[C@@H](C)CC)[C@@H](C)O)[C@@H](C)CC)[C@@H](C)O)[C@@H](C)O
notes: analog of rat PrRP31
Ki [1]: 1.12 nM | % of PrRP31 binding [2]: 440%
